Test results published in PMC10401862, “A high-throughput dual system to screen polyphosphate kinase mutants for efficient ATP regeneration in L-theanine biocatalysis” (Biotechnology for Biofuels and Bioproducts, 2023).

B1: ChPPK (Cytophaga hutchinsonii ATCC 33406) (protein)
chain: MATDFSKLSKYVETLRVKPKQSIDLKKDFDTDYDHKMLTKEEGEELLNLGISKLSEIQEKLYASGTKSVLIVFQAMDAAGKDGTVKHIMTGLNPQGVKVTSFKVPSKIELSHDYLWRHYVALPATGEIGIFNRSHYENVLVTRVHPEYLLSEQTSGVTAIEQVNQKFWDKRFQQINNFEQHISENGTIVLKFFLHVSKKEQKKRFIERIELDTKNWKFSTGDLKERAHWKDYRNAYEDMLANTSTKQAPWFVIPADDKWFTRLLIAEIICTELEKLNLTFPTVSLEQKAELEKAKAELVAEKSSD
notes: synthesized gene expressed in E. coli BL21(DE3) from pXMJ-19, Ni-NTA purified
B2: ChPPK (Cytophaga hutchinsonii ATCC 33406; D82N) (protein)
chain: MATDFSKLSKYVETLRVKPKQSIDLKKDFDTDYDHKMLTKEEGEELLNLGISKLSEIQEKLYASGTKSVLIVFQAMDAAGKNGTVKHIMTGLNPQGVKVTSFKVPSKIELSHDYLWRHYVALPATGEIGIFNRSHYENVLVTRVHPEYLLSEQTSGVTAIEQVNQKFWDKRFQQINNFEQHISENGTIVLKFFLHVSKKEQKKRFIERIELDTKNWKFSTGDLKERAHWKDYRNAYEDMLANTSTKQAPWFVIPADDKWFTRLLIAEIICTELEKLNLTFPTVSLEQKAELEKAKAELVAEKSSD
notes: as for B1
B3: ChPPK (Cytophaga hutchinsonii ATCC 33406; K103E) (protein)
chain: MATDFSKLSKYVETLRVKPKQSIDLKKDFDTDYDHKMLTKEEGEELLNLGISKLSEIQEKLYASGTKSVLIVFQAMDAAGKDGTVKHIMTGLNPQGVKVTSFEVPSKIELSHDYLWRHYVALPATGEIGIFNRSHYENVLVTRVHPEYLLSEQTSGVTAIEQVNQKFWDKRFQQINNFEQHISENGTIVLKFFLHVSKKEQKKRFIERIELDTKNWKFSTGDLKERAHWKDYRNAYEDMLANTSTKQAPWFVIPADDKWFTRLLIAEIICTELEKLNLTFPTVSLEQKAELEKAKAELVAEKSSD
notes: as for B1

substrate: Nc1ncnc2c1ncn2[C@@H]1O[C@H](COP(=O)(O)OP(=O)(O)O)[C@@H](O)[C@H]1O; assay: purified protein; format: biochemical, Cytophaga hutchinsonii; settings: 100 mM Tris-HCl pH 8.0, 35 °C, MgCl2, ADP 0.1 to 5 mM, polyP6 as co-substrate

**Q.** With B1 as the protein, how does the Km read?
**A.** The Km was 1390 ± 70 µM.

**Q.** And the kcat?
**A.** The kcat was 10 ± 0.13 s⁻¹.

**Q.** What about the kcat/Km of the same protein?
**A.** Its kcat/Km is 7220 M⁻¹ s⁻¹.

**Q.** How did the Km turn out when B2 was run?
**A.** The Km was 950 ± 30 µM.

**Q.** And the kcat?
**A.** The kcat was 15.05 ± 0.04 s⁻¹.

**Q.** And the kcat/Km?
**A.** Its kcat/Km is 15800 M⁻¹ s⁻¹.

**Q.** What does the source list for B3?
**A.** Km: 810 ± 120 µM; kcat: 19.69 ± 0.12 s⁻¹; kcat/Km: 24300 M⁻¹ s⁻¹
